Test results taken from article PMC5542437, “Assembly and stoichiometry of the core structure of the bacterial flagellar type III export gate complex” (PLoS Biology, 2017).

B1: His-St-FliP (Salmonella FliP with a hexahistidine tag inserted between Gln-22 and Leu-23) (natural protein)
chain: QLPGLISQPLAGGGQSWSLSVQTLVFITSLTFLPAILLMMTSFTRIIIVFGLLRNALGTPSAPPNQVLLGLALFLTFFIMSPVIDKIYVDAYQPFSEQKISMQEALDKGAQPLRAFMLRQTREADLALFARLANSGPLQGPEAVPMRILLPAYVTSELKTAFQIGFTIFIPFLIIDLVIASVLMALGMMMVPPATIALPFKLMLFVLVDGWQLLMGSLAQSFYS
notes: FliP, Salmonella enterica, 25-kDa transmembrane protein; mature form studied; the signal peptide (Met-1 to Gln-22) is cleaved during membrane insertion; tag LHHHHHH inserted between Gln-22 and Leu-23; Hexameric ring in SEC peak 2; also called His-FliP; FliP6 ring; source: Salmonella SJW1368, membranes solubilised with 1% DDM or 1% LMNG; purified (Ni-NTA, SEC); not shown: His6 (LHHHHHH), internal …
B2: HA-FliQ (natural protein)
chain: MTPESVMMMGTEAMKVALALAAPLLLVALITGLIISILQAATQINEMTLSFIPKIVAVFIAIIVAGPWMLNLLLDYVRTLFSNLPYIIG
notes: FliQ, Salmonella enterica, transmembrane export gate protein; source: Salmonella SJW1368, pTrc99A-based plasmid, in DDM- or LMNG-solubilised membranes; co-purified

Legend:
[1] = molecular target: the molecule itself; experiment: SEC; Ni-purified His-FliP or FliO/His-FliP complexes (wild type and mutants) on Superdex 200 10/300; 20 mM Tris-HCl pH 8.0, 300 mM NaCl, 2 mM EDTA, 5% glycerol, 0.1% DDM
[2] = molecular target: T1, FlhA (Salmonella enterica, UniProt P40729 1-692); experiment: pull-down; Ni-NTA copurification with His-FliP from SJW1368 co-expressing FlhA, FlhB, FliO, His-FliP, HA-FliQ and FliR-FLAG; membranes solubilised with 1% LMNG; immunoblot (lane L of Fig 6B); conditions: partners not purified
T1 construct: FlhA, Salmonella enterica, transmembrane export gate protein; source: Salmonella SJW1368, pTrc99A-based plasmid, in DDM- or LMNG-solubilised membranes; co-purified
T1 sequence: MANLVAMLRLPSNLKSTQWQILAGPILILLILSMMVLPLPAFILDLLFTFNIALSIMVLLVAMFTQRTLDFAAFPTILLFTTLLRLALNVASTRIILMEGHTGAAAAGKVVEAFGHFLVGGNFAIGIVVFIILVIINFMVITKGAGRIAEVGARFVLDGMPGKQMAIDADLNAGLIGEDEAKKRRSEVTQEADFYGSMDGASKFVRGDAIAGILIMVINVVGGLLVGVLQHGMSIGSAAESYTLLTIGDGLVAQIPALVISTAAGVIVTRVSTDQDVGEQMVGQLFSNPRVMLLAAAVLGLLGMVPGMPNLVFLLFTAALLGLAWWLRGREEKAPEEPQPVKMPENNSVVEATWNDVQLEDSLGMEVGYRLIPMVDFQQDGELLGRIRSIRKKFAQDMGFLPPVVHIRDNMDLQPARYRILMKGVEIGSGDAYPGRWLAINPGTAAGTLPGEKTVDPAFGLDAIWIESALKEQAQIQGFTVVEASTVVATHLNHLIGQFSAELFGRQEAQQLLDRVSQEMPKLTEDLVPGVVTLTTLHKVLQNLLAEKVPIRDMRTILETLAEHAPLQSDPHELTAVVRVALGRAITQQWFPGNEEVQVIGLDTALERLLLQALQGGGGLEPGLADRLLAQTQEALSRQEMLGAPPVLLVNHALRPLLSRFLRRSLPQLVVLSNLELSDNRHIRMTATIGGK

[3] = molecular target: the molecule itself; experiment: negative-stain electron microscopy with 2D class averaging; purified SEC peak fractions, 1.0% uranyl acetate, 100 kV; autocorrelation analysis for the rotational symmetry of the FliP ring
[4] = molecular target: T2, FliR-FLAG (Salmonella enterica, UniProt P54702 1-264); experiment: pull-down; copurification from Salmonella SJW1368 co-expressing His-FliP with other export gate proteins; membranes solubilised with 1% DDM; Ni affinity, then anti-FLAG M2 affinity (eluted with FLAG peptide), then SEC on Superdex 200 10/300; SDS-PAGE with CBB; conditions: partners not purified
T2 construct: FliR, Salmonella enterica, transmembrane export gate protein; also called FLAG-FliR (as printed in the methods); source: Salmonella SJW1368, pTrc99A-based plasmid, in DDM- or LMNG-solubilised membranes; co-purified (Ni-NTA, anti-FLAG gel, SEC)
T2 sequence: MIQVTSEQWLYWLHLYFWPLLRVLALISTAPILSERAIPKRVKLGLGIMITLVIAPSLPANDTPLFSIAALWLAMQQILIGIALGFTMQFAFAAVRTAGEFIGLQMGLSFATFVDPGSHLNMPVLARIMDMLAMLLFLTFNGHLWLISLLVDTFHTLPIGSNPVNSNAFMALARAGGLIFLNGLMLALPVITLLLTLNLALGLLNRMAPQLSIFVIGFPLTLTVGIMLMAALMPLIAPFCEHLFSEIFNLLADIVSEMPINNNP

[5] = molecular target: T3, FlhB (Salmonella enterica, UniProt P40727 1-383); experiment: as above; conditions: partners not purified
T3 construct: FlhB, Salmonella enterica, transmembrane export gate protein; its C-terminal cytoplasmic domain undergoes autocleavage between Asp-269 and Pro270 as printed; source: Salmonella SJW1368, pTrc99A-based plasmid, in DDM- or LMNG-solubilised membranes; co-purified
T3 sequence: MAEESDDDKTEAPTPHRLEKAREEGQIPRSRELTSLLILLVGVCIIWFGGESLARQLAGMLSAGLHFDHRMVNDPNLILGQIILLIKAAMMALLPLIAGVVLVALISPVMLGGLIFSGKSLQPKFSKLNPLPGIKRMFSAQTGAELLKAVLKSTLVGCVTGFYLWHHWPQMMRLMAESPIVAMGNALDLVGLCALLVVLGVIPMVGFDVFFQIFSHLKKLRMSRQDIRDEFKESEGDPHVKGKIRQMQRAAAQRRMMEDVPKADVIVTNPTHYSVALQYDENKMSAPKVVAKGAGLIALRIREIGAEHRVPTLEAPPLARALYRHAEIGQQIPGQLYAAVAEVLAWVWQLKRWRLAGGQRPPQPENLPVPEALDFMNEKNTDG

[6] = molecular target: B1; experiment: pull-down; Ni-NTA copurification with His-FliP from SJW1368 co-expressing FlhA, FlhB, FliO, His-FliP, HA-FliQ and FliR-FLAG; membranes solubilised with 1% LMNG; immunoblot (lane L of Fig 6B); conditions: partners not purified

## B1
[1]
  stoichiometry N: 2
[2]
  binding result: binds
[3]
  stoichiometry N: 6
[4]
  binding result: binds
[5]
  binding result: binds

## B2
[6]
  binding result: binds
